From article PMC3737472

Key:
[1] = target: HSV-1 glycoprotein B ectodomain lacking the membrane proximal region, gB730t (residues 31-730) (herpes simplex virus type 1 (HSV-1)) (UniProt P06437); assay: SEC; Superdex200 column run in 2x PBS; gB773t also run in 2x PBS/0.5% octyl-glucoside after overnight incubation with the detergent
[2] = target: HSV-1 glycoprotein B ectodomain lacking the membrane proximal region, gB730t (residues 31-730) (herpes simplex virus type 1 (HSV-1)) (UniProt P06437); assay: cryo-EM projection images; SEC fraction 22 (run without detergent) embedded in vitreous ice on holey carbon grids
[3] = target: HSV-1 glycoprotein B ectodomain lacking the membrane proximal region, gB730t (residues 31-730) (herpes simplex virus type 1 (HSV-1)) (UniProt P06437); assay: negative stain EM; SEC fractions 19-22 (run without detergent) on carbon-coated grids at 2-20 ug/ml; 0.75% uranyl formate pH 5.5 or methylamine vanadate pH 8.0
[4] = target: HSV-1 glycoprotein B ectodomain lacking the membrane proximal region, gB730t (residues 31-730) (herpes simplex virus type 1 (HSV-1)) (UniProt P06437); assay: cryo-EM structure; cryo-ET subtomogram averaging of gB730t trimers bound to liposomes (phosphatidylcholine:cholesterol 1.7:1), pH 5.5, protein ca. 1 mg/ml, 1 hr at 37 C; 786 particles, 2.7 nm
[5] = target: HSV-1 glycoprotein B ectodomain lacking the membrane proximal region, gB730t (residues 31-730) (herpes simplex virus type 1 (HSV-1)) (UniProt P06437); assay: negative stain EM; SEC fractions 19-22 (run without detergent) on carbon-coated grids at 2-20 ug/ml; 0.75% uranyl formate pH 5.5 or methylamine vanadate pH 8.0; remark: listed apart in the source
[6] = target: HSV-1 glycoprotein B full-length ectodomain including the membrane proximal region, gB773t (residues 31-773) (herpes simplex virus type 1 (HSV-1)) (UniProt P06437); assay: cryo-EM projection images; SEC fraction 22 (run without detergent) embedded in vitreous ice on holey carbon grids
[7] = target: HSV-1 glycoprotein B full-length ectodomain including the membrane proximal region, gB773t (residues 31-773) (herpes simplex virus type 1 (HSV-1)) (UniProt P06437); assay: negative stain EM; SEC fractions 19-22 (run without detergent) on carbon-coated grids at 2-20 ug/ml; 0.75% uranyl formate pH 5.5 or methylamine vanadate pH 8.0

Substance	stoichiometry N [1]	stoichiometry N [2]	stoichiometry N [3]	stoichiometry N [4]	stoichiometry N [5]	stoichiometry N [6]	stoichiometry N [7]
HSV-1 glycoprotein B ectodomain lacking the membrane proximal region, gB730t (residues 31-730) (from UniProt P06437 31-730) (domain or fragment)	3	3	3	3	6	–	–
HSV-1 glycoprotein B full-length ectodomain including the membrane proximal region, gB773t (residues 31-773) (from UniProt P06437 31-773) (domain or fragment)	–	–	–	–	–	3	3
